Paper PMC9307627, “Targeting loop3 of sclerostin preserves its cardiovascular protective action and promotes bone formation”

Legend:
Assay in all cases: ELONA; ELONA: 160 ng protein coated in PBS; biotinylated aptamer 45 min at RT; wash in PBS pH 7.4, 1 mM MgCl2, 5 mM imidazole, 0.05% Tween 20; streptavidin-HRP/TMB, hyperbolic fit
[1] = biological target: full-length human sclerostin (FL hSOST) (human, UniProt Q9BQB4 25-213); details: protein: recombinant; tags: His6; label: biotin
[2] = biological target: T1, sclerostin loop2 (human, UniProt Q9BQB4 110-133); details: label: biotin
T1 chain: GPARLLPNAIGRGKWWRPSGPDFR

[3] = biological target: T2, sclerostin loop3m (human, UniProt Q9BQB4 135-164, R138A;Y139A;R140A;Q142A;R143A;V144A;G151A;E152A;R157A;K158A;V159A); details: label: biotin
T2 chain: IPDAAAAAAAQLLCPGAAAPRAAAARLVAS

[4] = biological target: T3, sclerostin loop1 (human, UniProt Q9BQB4 81-104); details: label: biotin
T3 chain: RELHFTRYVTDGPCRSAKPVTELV

[5] = biological target: T4, sclerostin loop3 (WT) (human, UniProt Q9BQB4 135-164); details: label: biotin
T4 chain: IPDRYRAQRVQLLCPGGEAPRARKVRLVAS

Chain of full-length human sclerostin (FL hSOST) (Q9BQB4 25-213): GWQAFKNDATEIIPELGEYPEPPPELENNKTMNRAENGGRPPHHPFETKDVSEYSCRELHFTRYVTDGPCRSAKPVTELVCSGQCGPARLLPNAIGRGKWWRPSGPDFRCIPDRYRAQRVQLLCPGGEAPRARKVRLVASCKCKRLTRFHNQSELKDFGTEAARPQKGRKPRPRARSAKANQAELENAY

Binder: CGGGGTGTGGGTAAATCGTTAGAAAGATTAAACAGCTGCC (ssDNA) [aptscl56m]
- binding result [1]: no binding

Binder: GAGGGGGCCAACTATGCTTAGTGGGGGGGTTGACCGTATC (ssDNA) [aptamer candidate 15]
- Kd [1]: 4 nM

Binder: GGGTGGATTAAGGGGGCCCCGTCTGTAGGCGATTGGCGAA (ssDNA) [aptamer candidate 46]
- Kd [1]: 45.6 nM

Binder: TGGAAGGGTGGGGGCGGGGGGTCCTCGCCTCGAACGTACG (ssDNA) [aptamer candidate 6]
- Kd [1]: 4.2 nM

Binder: TGGGGGTAGGGGGACCCTGGCTAGTTAGTCACCGTTTCGA (ssDNA) [aptamer candidate 9]
- Kd [1]: 3.4 nM

Binder: TGGGGGTAGGGGGTCCTTGGCTACGGTGATTCGGATGTGA (ssDNA) [aptamer candidate 51]
- Kd [1]: 62.2 nM

Binder: CGGGGTGTGGGTTCGTCGTTAGCTTGATTTGGCAGCTGCC (ssDNA) [aptscl56]
- binding result [2]: no binding
- binding result [3]: binds
- binding result [4]: no binding
- binding result [5]: binds
- Kd [1]: 43.1 nM

Binder: CCCAGACGAGACACCTCATGCTTTTCCCCGGGGGAGGGGTAT (ssDNA) [aptamer candidate 132]
- Kd [1]: 42.2 nM
